Experimental data reported in the supplement of paper PMC11246515.
± gives the standard deviation of the averaged measurements.

Experiment: total protein half-life in vivo (active degradation + dilution); higher = more stable protein
[1] = E. coli NCM3722 delta-clpP delta-lon delta-hslV, growth: N-lim chemostat, doubling time 6 h
[2] = E. coli NCM3722 delta-clpP, growth: N-lim chemostat, doubling time 6 h
[3] = E. coli NCM3722 delta-lon, growth: N-lim chemostat, doubling time 6 h
[4] = E. coli NCM3722 delta-smpB, growth: N-lim chemostat, doubling time 6 h
[5] = wild type E. coli NCM3722, growth: C-lim chemostat, doubling time 3 h
[6] = wild type E. coli NCM3722, growth: N-lim chemostat, doubling time 6 h
[7] = wild type E. coli NCM3722, growth: N-lim chemostat, doubling time 12 h
[8] = wild type E. coli NCM3722, growth: P-lim chemostat, doubling time 6 h
[9] = wild type E. coli NCM3722, growth: P-lim chemostat, doubling time 12 h
[10] = E. coli NCM3722 delta-hslV, growth: N-lim chemostat, doubling time 6 h
[11] = wild type E. coli NCM3722, growth: C-lim chemostat, doubling time 6 h
[12] = wild type E. coli NCM3722, growth: C-lim chemostat, doubling time 12 h

Sequence	total protein half-life in vivo [1] [h]	total protein half-life in vivo [2] [h]	total protein half-life in vivo [3] [h]	total protein half-life in vivo [4] [h]	total protein half-life in vivo [5] [h]	total protein half-life in vivo [6] [h]	total protein half-life in vivo [7] [h]	total protein half-life in vivo [8] [h]	total protein half-life in vivo [9] [h]	total protein half-life in vivo [10] [h]	total protein half-life in vivo [11] [h]	total protein half-life in vivo [12] [h]
MSFLLPIQLFKILADETRLGIVLLLSELGELCVCDLCTALDQSQPKISRHLALLRESGLLLDRKQGKWVHYRLSPHIPAWAAKIIDEAWRCEQEKVQAIVRNLARQNCSGDSKNICS	6.03	5.66	5.43	5.01 ± 0.46	2.68	4.89	9.59	5.5	9.37			
MSFNTIIDWNSCTAEQQRQLLMRPAISASESITRTVNDILDNVKARGDEALREYSAKFDKTTVTALKVSAEEIAAASERLSDELKQAMAVAVKNIETFHTAQKLPPVDVETQPGVRCQQVTRPVASVGLYIPGGSAPLFSTVLMLATPASIAGCKKVVLCSPPPIADEILYAAQLCGVQDVFNVGGAQAIAALAFGTESVPKVDKIFGPGNAFVTEAKRQVSQRLDGAAIDMPAGPSEVLVIADSGATPDFVASDLLSQAEHGPDSQVILLTPAADMARRVAEAVERQLAELPRAETARQALNASRLIVTKDLAQCVEISNQYGPEHLIIQTRNARELVDSITSAGSVFLGDWSPESAGDYASGTNHVLPTYGYTATCSSLGLADFQKRMTVQELSKEGFSALASTIETLAAAERLTAHKNAVTLRVNALKEQA	4.6 ± 0.29	4.43 ± 0.94	4.89 ± 0.47	4.3 ± 0.25	3.3 ± 0.18	4.23 ± 0.25	6.67 ± 0.38	5.595 ± 0.053	11.9 ± 0.35	3.96 ± 0.073	5.97 ± 0.23	10.8 ± 1.1
MSFSCPLCHQPLSREKNSYICPQRHQFDMAKEGYVNLLPVQHKRSRDPGDSAEMMQARRAFLDAGHYQPLRDAIVAQLRERLDDKATAVLDIGCGEGYYTHAFADALPEITTFGLDVSKVAIKAAAKRYPQVTFCVASSHRLPFSDTSMDAIIRIYAPCKAEELARVVKPGGWVITATPGPRHLMELKGLIYNEVHLHAPHAEQLEGFTLQQSAELCYPMRLRGDEAVALLQMTPFAWRAKPEVWQTLAAKEVFDCQTDFNIHLWQRSY	6.07 ± 0.81	4.95 ± 0.29	4.9 ± 0.089	4.28 ± 0.53	2.57	5.34 ± 0.44	9.24 ± 0.73	5.78 ± 0.22	13.5 ± 2.7	4.97	5.6	10.8 ± 0.77
MSFSVDVLANIAIELQRGIGHQDRFQRLITTLRQVLECDASALLRYDSRQFIPLAIDGLAKDVLGRRFALEGHPRLEAIARAGDVVRFPADSELPDPYDGLIPGQESLKVHACVGLPLFAGQNLIGALTLDGMQPDQFDVFSDEELRLIAALAAGALSNALLIEQLESQNMLPGDATPFEAVKQTQMIGLSPGMTQLKKEIEIVAASDLNVLISGETGTGKELVAKAIHEASPRAVNPLVYLNCAALPESVAESELFGHVKGAFTGAISNRSGKFEMADNGTLFLDEIGELSLALQAKLLRVLQYGDIQRVGDDRCLRVDVRVLAATNRDLREEVLAGRFRADLFHRLSVFPLSVPPLRERGDDVILLAGYFCEQCRLRQGLSRVVLSAGARNLLQHYSFPGNVRELEHAIHRAVVLARATRSGDEVILEAQHFAFPEVTLPTPEVAAVPVVKQNLREATEAFQRETIRQALAQNHHNWAACARMLETDVANLHRLAKRLGLKD			4.32	3.19 ± 0.46	2.33	3.76	5.2 ± 0.5		7.35 ± 0.38			7.42 ± 0.3
MSFTRRKFVLGMGTVIFFTGSASSLLANTRQEKEVRYAMIHDESRCNGCNICARACRKTNHVPAQGSRLSIAHIPVTDNDNETQYHFFRQSCQHCEDAPCIDVCPTGASWRDEQGIVRVEKSQCIGCSYCIGACPYQVRYLNPVTKVADKCDFCAESRLAKGFPPICVSACPEHALIFGREDSPEIQAWLQQNKYYQYQLPGAGKPHLYRRFGQHLIKKENV	4.71 ± 0.073								15.8			
MSFVVIIPARYASTRLPGKPLVDINGKPMIVHVLERARESGAERIIVATDHEDVARAVEAAGGEVCMTRADHQSGTERLAEVVEKCAFSDDTVIVNVQGDEPMIPATIIRQVADNLAQRQVGMATLAVPIHNAEEAFNPNAVKVVLDAEGYALYFSRATIPWDRDRFAEGLETVGDNFLRHLGIYGYRAGFIRRYVNWQPSPLEHIEMLEQLRVLWYGEKIHVAVAQEVPGTGVDTPEDLERVRAEMR	4.88 ± 0.51	4.7 ± 0.29	4.949 ± 0.04	4.68 ± 0.18	2.84 ± 0.45	4.72 ± 0.32	7.79 ± 0.56	5.81 ± 0.29	12.6 ± 0.66	4.68 ± 0.45	6.6 ± 0.59	10.8 ± 0.44
MSGFYHKHFLKLLDFTPAELNSLLQLAAKLKADKKSGKEEAKLTGKNIALIFEKDSTRTRCSFEVAAYDQGARVTYLGPSGSQIGHKESIKDTARVLGRMYDGIQYRGYGQEIVETLAEYASVPVWNGLTNEFHPTQLLADLLTMQEHLPGKAFNEMTLVYAGDARNNMGNSMLEAAALTGLDLRLVAPQACWPEAALVTECRALAQQNGGNITLTEDVAKGVEGADFIYTDVWVSMGEAKEKWAERIALLREYQVNSKMMQLTGNPEVKFLHCLPAFHDDQTTLGKKMAEEFGLHGGMEVTDEVFESAASIVFDQAENRMHTIKAVMVATLSK	3.57 ± 0.61	2.14 ± 0.064	2.62 ± 0.044	2.52 ± 0.042	2.9 ± 0.032	2.52 ± 0.23	3.48 ± 0.63	5.11 ± 0.34	8.84 ± 0.35	2.09 ± 0.27	4.71 ± 0.28	7.42 ± 1.9
MSGSNTAISRRRLLQGAGAMWLLSVSQVSLAAVSQVVAVRVWPASSYTRVTVESNRQLKYKQFALSNPERVVVDIEDVNLNSVLKGMAAQIRADDPFIKSARVGQFDPQTVRMVFELKQNVKPQLFALAPVAGFKERLVMDLYPANAQDMQDPLLALLEDYNKGDLEKQVPPAQSGPQPGKAGRDRPIVIMLDPGHGGEDSGAVGKYKTREKDVVLQIARRLRSLIEKEGNMKVYMTRNEDIFIPLQVRVAKAQKQRADLFVSIHADAFTSRQPSGSSVFALSTKGATSTAAKYLAQTQNASDLIGGVSKSGDRYVDHTMFDMVQSLTIADSLKFGKAVLNKLGKINKLHKNQVEQAGFAVLKAPDIPSILVETAFISNVEEERKLKTATFQQEVAESILAGIKAYFADGATLARRG	4.83 ± 0.39	5.68 ± 1.5	5.12 ± 0.18	4.18 ± 0.3	2.74 ± 0.23	5.19 ± 1.1	8.626 ± 0.061	5.29 ± 0.18	10.4 ± 0.28	5.1 ± 0.2	4.852 ± 0.02	9.06 ± 0.98
